Experimental data taken from the supplement of paper PMC7125110.
± gives the standard error. Fewer inactive variants are shown than the library holds.

B1: glmS ribozyme (parent)
chain: AUAAAAGCGCCAGAACUACAGAAAUGUAGUUGACGAGGAGGAGGUUUAUCGAAUUUUCGGCGGAUGCCUCCAAA

Key:
Settings in all cases: with glucosamine-6-phosphate
[1] = variants of: B1; experiment: self-cleavage kobs at 160 uM GlcN6P; higher = faster cleavage; RNA array
How it was run: (§1)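 Tiles bearing barcoded ribozyme variants, transcribed in situ by E. coli RNA polymerase on sequenced MiSeq chips, were imaged over ~14 h at 37 °C using a hybridised Cy3 probe. Glucosamine-6-phosphate was supplied at 40 μM to 10 mM in HEPES/KCl/Mg(OAc)2 buffer. kobs came from one- or two-exponential decay fits to normalised per-tile medians, and weighted Michaelis–Menten fits then provided kcat and KM.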

[2] = variants of: B1; experiment: self-cleavage kobs at 640 uM GlcN6P; higher = faster cleavage; RNA array
How it was run: as §1

[3] = variants of: B1; experiment: self-cleavage kobs at 2500 uM GlcN6P; higher = faster cleavage; RNA array
How it was run: as §1

[4] = variants of: B1; experiment: self-cleavage kobs at 10000 uM GlcN6P; higher = faster cleavage; RNA array
How it was run: as §1

Variant | self-cleavage kobs at 160 uM GlcN6P [1] | self-cleavage kobs at 640 uM GlcN6P [2] | self-cleavage kobs at 2500 uM GlcN6P [3] | self-cleavage kobs at 10000 uM GlcN6P [4]
AUAAAAUCGCCAGAGCUACAGAAAUGUAGUUAACGAGGAGGAGGUUUAUCGAAUUUUCGGCGGAUGCCUCCAAA [G7U A15G G32A] | < 1e-05 s⁻¹ | < 1e-05 s⁻¹ | – | –
AUAAAAGCGCCAGAACUACAGAAAUGUAGUUGACGAGGAGGACGUUUAUAGAAUUUUUGGCGGAUGCCUCCAAA [G43C C50A C58U] | < 1e-05 s⁻¹ | < 1e-05 s⁻¹ | < 1e-05 s⁻¹ | –
AUAAAAGCGCCAGAACUACAGAAAUGUAGUUGAUGAGGAGGAGGUUUAUCCAAUUUUCGGCGGAUGCCUCCAAA [C34U G51C] | < 1e-05 s⁻¹ | < 1e-05 s⁻¹ | < 1e-05 s⁻¹ | < 1e-05 s⁻¹
AUAAAAGCGUCAGAAUUACAGAAAUGUAGUUGACGAGCAGGAGGUUUAUCGAAUUUUCGGCGGAUGCCUCCAAA [C10U C16U G38C] | < 1e-05 s⁻¹ | < 1e-05 s⁻¹ | < 1e-05 s⁻¹ | –
AUAAAAGCGACAGAAAUACAGAAAUGUAGUUGACGAGGAGGAGGUUCAUCGAAUUUUCGGCGGACGCCUCCAAA [C10A C16A U47C U65C] | < 1e-05 s⁻¹ | < 1e-05 s⁻¹ | – | –
AUAAAAGCGCCAGAACUACAGAAAUGUAGUUGACGAGGAGGACGUUUAGCGAAUUUUCGGCGGAUGCCUCCAAA [G43C U49G] | < 1e-05 s⁻¹ | < 1e-05 s⁻¹ | < 1e-05 s⁻¹ | < 1e-05 s⁻¹
AUAAAAGCGCCAGAAAUACAGAAAUGUAGUCGACGAGGAGGAGGUUUAUCGAAUUGUCGGCGGAUGCCUCCAAA [C16A U31C U56G] | 3.96e-05 ± 1.5e-05 s⁻¹ | 9.16e-05 ± 1.9e-05 s⁻¹ | 0.000266 ± 5.4e-05 s⁻¹ | –
AUAAAAGCGCCAGAACUACAGAAAUGUAGGUGACGAGGAGGGGGUUUAUCGAAUUCUCGGCGGAUGCCUCCAAA [U30G A42G U56C] | 0.000132 ± 4.7e-05 s⁻¹ | 0.000353 ± 0.00011 s⁻¹ | 0.000492 ± 0.00016 s⁻¹ | –
AUAAAAGCGCAAGAACUACAGAAAUGUAGUUGACGAGGAGGAGGUUUAUCGACUUUUCGGCGGAUGGCUCCAAA [C11A A53C C67G] | < 1e-05 s⁻¹ | < 1e-05 s⁻¹ | – | –
AUAAAAGCGCCAGAACUACAGAAAUGUAGUUGACGAGGAGGAGGUUUAUUGAAUUAUCGGCGGAUGCCUCCAAA [C50U U56A] | < 1e-05 s⁻¹ | – | – | –
AUAAAAGCGCCAGAACUACAGAAAUGUAGUUGAAGAAGAGGAGGUUUAUCGAAUUUUUGGCGGAUGCCUCCAAA [C34A G37A C58U] | < 1e-05 s⁻¹ | – | – | –
AUAAAAGCGCCAGAACUACAGAAAUGUAGUUGACGAGGAGUAUGUUUAUCUAAUUUUCGGCGGAUGCCUCCAAA [G41U G43U G51U] | < 1e-05 s⁻¹ | – | < 1e-05 s⁻¹ | –
AUAAAAGCGCCAGAACUACAGAAAUGUAGUUGAGGAGGAGGAGGUUUAGCGAGUUUUCGGCGCAUGCCUCCAAA [C34G U49G A53G G63C] | < 1e-05 s⁻¹ | < 1e-05 s⁻¹ | – | –
AUAAAAGCGCCAGAACUACAGAAAUUUAGUUGACGAGGAGGAGGUUUAUGGAAUUUUCGGCGGAUGCUUCCAAA [G26U C50G C68U] | 0.000155 ± 5.5e-05 s⁻¹ | – | – | –
AUAAAAGCGCCAGAACUACAGAAAUGUAGUUGAGGAGGACGAGGUUUGGCGAAUUUUCGGCGGAUGCCUCUAAA [C34G G40C A48G U49G C71U] | < 1e-05 s⁻¹ | < 1e-05 s⁻¹ | < 1e-05 s⁻¹ | < 1e-05 s⁻¹
AUAAAAGCGCCAGAACUACAGAAAUGUAGUUGACGAGGAGGAGGUUUAUCGAAAUUACGGCGGACGCCUCCAAA [U54A U57A U65C] | < 1e-05 s⁻¹ | – | – | –
